{
  "source": "paper PMC9813724",
  "target": "LvPrx4 (endogenous, shrimp hemocytes) (Penaeus vannamei (endogenous in hemocytes))",
  "assay": "Western blot after SDS-PAGE",
  "data": [
    {"substance": "LvPrx4 (endogenous, shrimp hemocytes) (natural protein)", "values": [
      {"measurement": "stoichiometry N", "result": 2}
    ]}
  ]
}
